Measured values from publication PMC5498155 (Bioorganic & medicinal chemistry, 2016).
“Also recorded” adds a separate entry of the source.

Target: CXCR4 (Homo sapiens, UniProt P61073)
Assay: Competitive CXCR4 binding assay
Conditions: CHO cells stably transfected with CXCR4; 12G5 antibody competition

Chain of CXCR4 (P61073 whole entry): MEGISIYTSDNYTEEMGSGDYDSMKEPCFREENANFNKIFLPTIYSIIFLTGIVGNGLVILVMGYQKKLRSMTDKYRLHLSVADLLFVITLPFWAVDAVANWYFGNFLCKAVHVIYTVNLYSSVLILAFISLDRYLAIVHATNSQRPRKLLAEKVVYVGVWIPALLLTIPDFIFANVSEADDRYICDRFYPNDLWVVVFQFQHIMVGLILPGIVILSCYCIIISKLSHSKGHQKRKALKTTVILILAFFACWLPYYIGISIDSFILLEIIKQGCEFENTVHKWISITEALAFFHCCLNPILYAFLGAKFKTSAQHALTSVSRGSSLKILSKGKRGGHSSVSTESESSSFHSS

SDF-1α1–8 (KPVSLSYR) [ligand 19]
CXCR4 binding activity (in words): very low CXCR4 binding affinity; also recorded: No binding
